Blank lines part the entries; values can stand above or below the molecule they belong to.
T1: GST-Ypt53 (S. cerevisiae, UniProt P36019 1-220)
T1 sequence (looked up): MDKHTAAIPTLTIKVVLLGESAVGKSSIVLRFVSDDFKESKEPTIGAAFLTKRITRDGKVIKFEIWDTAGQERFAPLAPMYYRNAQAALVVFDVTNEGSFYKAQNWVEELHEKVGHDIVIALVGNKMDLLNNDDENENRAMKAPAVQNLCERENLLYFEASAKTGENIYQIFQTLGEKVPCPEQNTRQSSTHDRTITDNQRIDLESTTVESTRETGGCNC

B1: Vps21-His10 (natural protein, S. cerevisiae, UniProt P36017 1-210, looked up)
chain: MNTSVTSIKLVLLGEAAVGKSSIVLRFVSNDFAENKEPTIGAAFLTQRVTINEHTVKFEIWDTAGQERFASLAPMYYRNAQAALVVYDVTKPQSFIKARHWVKELHEQASKDIIIALVGNKIDMLQEGGERKVAREEGEKLAEEKGLLFFETSAKTGENVNDVFLGIGEKIPLKTAEEQNSASNERESNNQRVDLNAANDGTSANSACSC
B2: GST-Ypt10 (natural protein, S. cerevisiae, UniProt P38146 1-199, looked up)
chain: MEATIKVVLLGDSSVGKTSIVTRLKSGKFLAKHAATIGAAFITKTIEVPSNDSSTEKRIHMEIWDTAGQERYKSLVPMYYRDANIALIVFELGDVSSLQCAKTWFQDLQDRAQGTQVIIVGNKYDLVCEEHSGEVTIPAELQGLPYVAVSAKTGYNFDTLNKIIISLVPESQFKTLSKNNEQGNILEINKKKSGSGCIC

Legend:
[1] = target: Vps21-His10 (S. cerevisiae) (UniProt P36017); test: liposome tethering by quasielastic light scattering
[2] = target: T1, GST-Ypt53; test: bead-liposome tethering assay
[3] = target: B1; test: bead-liposome tethering assay

- critical surface density for tethering [1]: < 1300 μm^−2
Molecule: Vps21-His10 (from UniProt P36017 1-210) (natural protein)

Molecule: B1
- binding result [2]: binds

Molecule: B2
- binding result [3]: binds

Source: article PMC3252480 (Nature structural & molecular biology, 2011)
